The RNAGym collection of RNA variant scans (doi:10.7554/elife.80360)

B1: HDV Ribozyme (parent)
chain: GGCCGGCAUGGUCCCAGCCUCCUCGCUGGCGCCGGCUGGGCAACAUUCCGAGGGGACCGUCCCCUCGGUAAUGGCGAAUGGGACCCA

Variants of: B1
Test: self-cleavage, relative activity (ratio to wild type); higher = more cleavage; co-transcriptional

Variant | self-cleavage
G53A C61U | 0.99
G31U C86A | 0.394
C61A C84A | 0.831
C44U C64U | 0.876
G11U G74A | 0.114
C13A A51C | 0.0898
G6U A43G | 0.0665
A42G C86A | 0.697
A42G C86U | 0.697
G6U G81C | 0.196
A8G | 1.02
C7U A71G | 0.931
G6U C26A | 0.397
G17C G55A | 0.402
G17C G55C | 0.262
C26U C44U | 1.01
C22G G54A | 0.101
G17C U23G | 0.123
C48G G59A | 0.92
C49U G59U | 0.858
G1U U12G | 0.369
A71C G81A | 0.309
C13A A70U | 0.0405
G28A G35U | 0.0601

Variant | self-cleavage
C44G U72A | 0.229
C7G U60C | 0.383
C64U G67A | 0.92
G53U C58G | 0.939
C21A U23G | 0.125
C21A U23C | 0.0755
G17U A70C | 0.246
C36U C64A | 0.482
U37G A70G | 0
C14A G35C | 0.0536
C15U C33A | 0.178
C57A C64A | 0.857
U47A C84A | 0.808
G76U C84A | 0.906
U20G C26A | 0.32
C7A G76C | 0.988
A45G A78G | 0.617
C4A U12C | 0.095
C19A A70U | 0.277
C22U U23A | 0.845
G40C C48G | 0.35
C49A A71G | 0.81
G50A A51C | 0.991
A8G C22A | 0.101

Variant | self-cleavage
U23A C66A | 0.883
C36A A71C | 0.0573
C3A G82C | 0.056
G1A A87G | 0.141
G29U C57G | 0.198
C7G C58G | 0.293
A16C C41U | 0.806
G74A C86U | 0.604
U37A C58A | 0.225
U60G A77U | 0.237
A43G | 0.618
G6C A51G | 0.222
G10C G68C | 0.705
A78U G80C | 0.174
G35A G50A | 0.692
G39C A78U | 0.131
G35C A51U | 0.396
C4A C36A | 0.0314
C61G G80A | 0.434
C33A U72A | 0.208
G35U C75U | 0.095
U27C U37A | 0.0519
U27G G39A | 0.196
G53U G74C | 0.202

Variant | self-cleavage
C14U G35C | 0.123
U72C C85G | 0.453
C18U A45G | 0.306
G25C G54A | 0.219
G34C G54A | 0.166
A56C C63A | 1.04
U9G C48U | 1.05
G6U U65G | 0.453
U20A A71C | 0.0554
G2A A45C | 0.0723
A51C C85U | 0.898
U47C C63G | 0.178
G73U A77G | 0.306
G35U A77U | 0.175
A42C G50U | 0.386
G10U C22A | 0.0941
U65A C75U | 0.277
C32G A87C | 0.0545
A8G G17C | 0.0519
G6A G28U | 0.0573
C32A G53U | 0.214
U37C G81C | 0.138
G10C C32U | 0.855
G59C A87G | 0.99

Variant | self-cleavage
G53C G74U | 0.379
G76U G81C | 0.628
C13U U72A | 0.128
U47G G82U | 0.123
C3G G6U | 0.0665
U72C A78C | 0.229
C66U G80C | 0.153
C33G A70U | 0.383
U20A A45C | 0.0639
C13U A51G | 0.89
G54A G76U | 0.799
C32A G80U | 0.0472
G40C A70U | 0.191
C49U U69C | 0.831
A70C G82C | 0
C26G A56C | 1.25
U47G | 1.09
G1C C19G | 0
U27C C30G | 0
C22A G35C | 0
U72G G82A | 0.0978
G67U G80C | 0.128
C21U G31A | 0.142
C4G G81C | 0.0767

Variant | self-cleavage
G31A A71G | 0.432
G40U C84U | 0.398
G11C G25A | 0.0449
C4A C19A | 0.0386
C24G C86A | 0.106
U60A G82C | 0.148
G11A G34U | 0.219
U20C A43U | 0.0378
C14U A71G | 0.883
G11U G25C | 0.104
U72A G80C | 0.219
G76A A78C | 0.242
A8U G11A | 0.151
C19G G40A | 0.0573
C24G G34A | 0.0332
G55C G67C | 1.06
C48U C62A | 0.847
C44A C49U | 0.462
G73A A77C | 0.161
G53A G54C | 0.857
C7A A83C | 0.0923
C4A U23C | 0.0978
C19U C36G | 0.0723
G55C C63U | 0.808

Variant | self-cleavage
C15U C32A | 0.214
A45U U65A | 0.618
G39C A45U | 0.0475
C26G G59C | 0.87
A43G C84U | 0.426
G11U C18G | 0.158
U12G A51C | 0.415
C33G G73U | 0.138
G6A C24A | 0.283
G25U G52U | 0.234
G25U G68C | 0.0791
C36A G67A | 0.126
C14U U23G | 0.712
U27G U60A | 0.914
C4G C58U | 0.404
G31U A83C | 0.0898
G40C A77U | 0.128
U12C U65G | 0.323
G53U G54U | 0.831
G6C G73C | 0
G6C G73A | 0.0723
G5C C14G | 0.111
U9A C14G | 0.604
